# Reference: PMC7504222
# Target: C-X-C motif chemokine receptor 4 (CXCR4) (human (endogenous in primary CD4+ T cells)) (UniProt P61073)
# Sequence of UniProt P61073 (P61073 whole entry): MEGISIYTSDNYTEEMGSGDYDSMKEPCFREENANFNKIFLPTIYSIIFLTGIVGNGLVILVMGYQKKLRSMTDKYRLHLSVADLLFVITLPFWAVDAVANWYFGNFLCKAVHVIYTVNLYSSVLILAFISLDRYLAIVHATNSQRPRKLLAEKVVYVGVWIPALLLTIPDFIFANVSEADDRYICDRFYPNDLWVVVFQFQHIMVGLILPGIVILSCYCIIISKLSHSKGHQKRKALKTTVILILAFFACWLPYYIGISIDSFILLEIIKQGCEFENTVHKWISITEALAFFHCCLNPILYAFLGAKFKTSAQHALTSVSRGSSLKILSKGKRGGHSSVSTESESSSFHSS
substance,measurement,value
stromal cell-derived factor-1 (SDF-1) (from UniProt P48061 22-93) (ligand),"median fluorescence intensity of MitoTracker Deep Red-labelled mitochondria on CD4+ T cells after 2 h co-culture, with 20 µg/mL blocking SDF-1 Ab; flow cytometry",21.1
same,"median fluorescence intensity of MitoTracker Deep Red-labelled mitochondria on CD4+ T cells after 2 h co-culture, without SDF-1 Ab; flow cytometry",44.8
